# According to PMC8509488:
# Key:
# [1] = molecular target: CgHspB1 N-terminal deletion mutant (CgHspB1DeltaN), N-terminal 30 amino acids deleted, from pET23b (Chinese hamster); test: SEC; HPLC-SEC, SB-804HQ gel-filtration column, sample heated at the specified temperature for 30 min, buffer B (50 mM Tris-HCl pH 7.5, 0.1 mM EDTA, 150 mM NaCl) with or without 20% ethylene glycol, 1.0 mL/min
# [2] = molecular target: CgHspB1C145S, CgHspB1 mutant with Cys145 replaced by Ser (Chinese hamster); test: AUC; sedimentation velocity, 40 °C, 0.5 mg/mL, without DTT (series with and without DTT)
# [3] = molecular target: CgHspB1C145S, CgHspB1 mutant with Cys145 replaced by Ser (Chinese hamster); test: AUC; sedimentation velocity, 40 °C, 0.5 mg/mL, with DTT
# [4] = molecular target: CgHspB1S15D, phosphorylation mimic mutant of CgHspB1 (Ser15 replaced with Asp) (Chinese hamster); test: AUC; sedimentation velocity, Rayleigh interference optics, 40,000 rpm, buffer containing 20% ethylene glycol; 40 °C, 1.5 mg/mL
# [5] = molecular target: CgHspB1S15D, phosphorylation mimic mutant of CgHspB1 (Ser15 replaced with Asp) (Chinese hamster); test: AUC; sedimentation velocity, Rayleigh interference optics, 40,000 rpm, buffer containing 20% ethylene glycol; 4 °C, 0.1 mg/mL
# [6] = molecular target: CgHspB1S15D, phosphorylation mimic mutant of CgHspB1 (Ser15 replaced with Asp) (Chinese hamster); test: AUC; sedimentation velocity, Rayleigh interference optics, 40,000 rpm, buffer containing 20% ethylene glycol; 25 °C, 1.5 mg/mL
# [7] = molecular target: CgHspB1S15D, phosphorylation mimic mutant of CgHspB1 (Ser15 replaced with Asp) (Chinese hamster); test: AUC; sedimentation velocity, Rayleigh interference optics, 40,000 rpm, buffer containing 20% ethylene glycol; 40 °C, 0.5 mg/mL
# [8] = molecular target: CgHspB1S15D, phosphorylation mimic mutant of CgHspB1 (Ser15 replaced with Asp) (Chinese hamster); test: AUC; sedimentation velocity, Rayleigh interference optics, 40,000 rpm, buffer containing 20% ethylene glycol; 4 °C, 1.5 mg/mL
# [9] = molecular target: CgHspB1S15D, phosphorylation mimic mutant of CgHspB1 (Ser15 replaced with Asp) (Chinese hamster); test: AUC; sedimentation velocity, Rayleigh interference optics, 40,000 rpm, buffer containing 20% ethylene glycol; 25 °C, 0.5 mg/mL
# [10] = molecular target: CgHspB1S15D, phosphorylation mimic mutant of CgHspB1 (Ser15 replaced with Asp) (Chinese hamster); test: AUC; sedimentation velocity, Rayleigh interference optics, 40,000 rpm, buffer containing 20% ethylene glycol; 4 °C, 0.5 mg/mL
# [11] = molecular target: CgHspB1S15D, phosphorylation mimic mutant of CgHspB1 (Ser15 replaced with Asp) (Chinese hamster); test: AUC; sedimentation velocity, Rayleigh interference optics, 40,000 rpm, buffer containing 20% ethylene glycol; 40 °C, 0.1 mg/mL
# [12] = molecular target: CgHspB1S15D, phosphorylation mimic mutant of CgHspB1 (Ser15 replaced with Asp) (Chinese hamster); test: AUC; sedimentation velocity, Rayleigh interference optics, 40,000 rpm, buffer containing 20% ethylene glycol; 25 °C, 0.1 mg/mL
# [13] = molecular target: HspB1 from Chinese hamster, wild type (CgHspB1WT) (Chinese hamster); test: AUC; sedimentation velocity, Rayleigh interference optics, 40,000 rpm, buffer containing 20% ethylene glycol; 40 °C, 1.5 mg/mL
# [14] = molecular target: HspB1 from Chinese hamster, wild type (CgHspB1WT) (Chinese hamster); test: AUC; sedimentation velocity, Rayleigh interference optics, 40,000 rpm, buffer containing 20% ethylene glycol; 25 °C, 1.5 mg/mL
# [15] = molecular target: HspB1 from Chinese hamster, wild type (CgHspB1WT) (Chinese hamster); test: AUC; sedimentation velocity, Rayleigh interference optics, 40,000 rpm, buffer containing 20% ethylene glycol; 25 °C, 0.5 mg/mL
substance,measurement,setting,value
"CgHspB1 N-terminal deletion mutant (CgHspB1DeltaN), N-terminal 30 amino acids deleted, from pET23b (domain or fragment)",stoichiometry N,[1],6
"CgHspB1C145S, CgHspB1 mutant with Cys145 replaced by Ser (natural protein)",stoichiometry N,"[2]; c(s20,w) peak a",21
same,stoichiometry N,"[2]; c(s20,w) peak b",25
same,stoichiometry N,"[2]; c(s20,w) peak c",33
same,stoichiometry N,"[3]; c(s20,w) peak a",21
same,stoichiometry N,"[3]; c(s20,w) peak b",25
same,stoichiometry N,"[3]; c(s20,w) peak c",32
"CgHspB1S15D, phosphorylation mimic mutant of CgHspB1 (Ser15 replaced with Asp) (natural protein)",stoichiometry N,[4],27
same,stoichiometry N,[5],19
same,stoichiometry N,[6],19
same,stoichiometry N,[7],26
same,stoichiometry N,[8],18
same,stoichiometry N,[9],19
same,stoichiometry N,[10],19
same,stoichiometry N,[11],26
same,stoichiometry N,[12],18
"HspB1 from Chinese hamster, wild type (CgHspB1WT) (natural protein)",stoichiometry N,"[13]; c(s20,w) peak a",20
same,stoichiometry N,"[13]; c(s20,w) peak b",27
same,stoichiometry N,"[13]; c(s20,w) peak c",38
same,stoichiometry N,"[14]; c(s20,w) peak a",20
same,stoichiometry N,"[14]; c(s20,w) peak b",30
same,stoichiometry N,"[15]; c(s20,w) peak b",6
same,stoichiometry N,"[15]; c(s20,w) peak c",18
